Values of other authors in paper PMC5040164.

Molecular target: SAS1B (Mus musculus) (UniProt Q6HA09)
Chain of UniProt Q6HA09 (Q6HA09 24-435): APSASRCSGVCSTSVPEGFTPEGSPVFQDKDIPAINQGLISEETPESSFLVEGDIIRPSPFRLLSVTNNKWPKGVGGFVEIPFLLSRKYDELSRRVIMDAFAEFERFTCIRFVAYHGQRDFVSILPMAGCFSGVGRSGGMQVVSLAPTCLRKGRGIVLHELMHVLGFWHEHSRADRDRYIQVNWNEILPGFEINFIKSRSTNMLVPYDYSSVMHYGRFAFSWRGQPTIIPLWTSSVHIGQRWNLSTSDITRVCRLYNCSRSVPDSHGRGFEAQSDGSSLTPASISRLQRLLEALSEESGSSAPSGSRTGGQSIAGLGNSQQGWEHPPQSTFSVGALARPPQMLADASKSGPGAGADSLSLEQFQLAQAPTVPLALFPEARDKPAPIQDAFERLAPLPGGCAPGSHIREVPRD

Which Kd does the source give for SLLP1 (from UniProt Q9D9X8) here?
Its Kd is 0.32 nM.
